From PMC9491610

B1: Stu2-HA (wild-type Stu2, 3xHA tagged) [S. cerevisiae] / γ-tubulin (Tub4) [S. cerevisiae (endogenous in yeast extract)] (parent)
chain 1: MSGEEEVDYTTLPLEERLTYKLWKARLEAYKELNQLFRNSVGDISRDDNIQIYWRDPTLFAQYITDSNVVAQEQAIVALNSLIDAFASSSLKNAHNITLISTWTPLLVEKGLTSSRATTKTQSMSCILSLCGLDTSITQSVELVIPFFEKKLPKLIAAAANCVYELMAAFGLTNVNVQTFLPELLKHVPQLAGHGDRNVRSQTMNLIVEIYKVTGNNSDLLEEILFKKLKPIQVKDLHKLFAKVGDEPSSSKMLFEWEKRELEKKRSQEEEARKRKSILSNDEGEYQIDKDGDTLMGMETDMPPSKQQSGVQIDTFSMLPEETILDKLPKDFQERITSSKWKDRVEALEEFWDSVLSQTKKLKSTSQNYSNLLGIYGHIIQKDANIQAVALAAQSVELICDKLKTPGFSKDYVSLVFTPLLDRTKEKKPSVIEAIRKALLTICKYYDPLASSGRNEDMLKDILEHMKHKTPQIRMECTQLFNASMKEEKDGYSTLQRYLKDEVVPIVIQIVNDTQPAIRTIGFESFAILIKIFGMNTFVKTLEHLDNLKRKKIEETVKTLPNFSIASGSTHSTIETNKQTGPMENKFLLKKSSVLPSKRVASSPLRNDNKSKVNPIGSVASASKPSMVAANNKSRVLLTSKSLATPKNVVANSTDKNEKLIEEYKYRLQKLQNDEMIWTKERQSLLEKMNNTENYKIEMIKENEMLREQLKEAQSKLNEKNIQLRSKEIDVNKLSDRVLSLENELRNMEIELDRNKKRNDTNLQSMGTISSYSIPSSTVSSNYGVKSLSSALPFKEEEDVRRKEDVNYERRSSESIGDLPHRVNSLNIRPYRKNGTGVSSVSDDLDIDFNDSFASEESYKRAAAVTSTLKARIEKMKAKSRREGTTRT
chain 2: MGGEIITLQAGQCGNHVGKFLWSQLAKEHAIGTDGLSQLPDSSTERDDDTKPFFRENSRNKFTPRAIMMDSEPSVIADVENTFRGFFDPRNTWVASDGASAGNSWANGYDIGTRNQDDILNKIDKEIDSTDNFEGFQLLHSVAGGTGSGLGSNLLEALCDRYPKKILTTYSVFPARSSEVVVQSYNTILALRRLIEDSDATVVFDNASLLNISGKVFRNPNIDLQHTNQLISTIISSVTNSIRFPSYMYSSMSSIYSTLIPSPELHFLSPSFTPFTSDYIHDDIAHKGHSSYDVMLDLLDPSNSLVSTAMNNPTYFNVYNTIIGNVEPRQISRAMTKLQQRIKFPSWSSSAMHVNIGRRSPYLPLQPNENEVSGMMLSNMSTVVNVFENACNTFDKVFAKGAFLNNYNVGDLFQSMQNVQDEFAESREVVQSLMEDYVAAEQDSYLDDVLVDDENMVGELEEDLDADGDHKLV

Variants of: B1
Test: co-immunoprecipitation, western blot densitometry
Details: with γ-tubulin (Tub4) [S. cerevisiae (endogenous in yeast extract)], PBS buffer, three biological replicates, read off a plot; for screen value: parent: 0; for ratio to parent: parent: 1

Variant | screen value | ratio to parent
chain 1 K252Q K469Q K870Q | 1.8 | 5.5
chain 1 K252Q | 1.8 | 7
chain 1 K252R | -0.05 | 1.2
chain 1 K252R K469R | -0.5 | 0.7
chain 1 K252Q K469Q | 1 | 2.5

Second part, the variant after the results:

screen value | ratio to parent | Variant
0.1 | 1.5 | chain 1 K870R
-0.6 | 0.9 | chain 1 K870Q
0.75 | 2.2 | chain 1 K469R
1.5 | 4 | chain 1 K469Q
-3 | – | chain 1 K252R K469R K870R
